Patent publication US20250009801A1 (Innovent, published 2025)

Tests used:
[1] = biological target: T1, human Claudin18.2-His (Acro, CL2-H5546) (human, UniProt P56856-2 1-261); experiment: SPR (Biacore T200), Claudin18.2-His coupled on CM5 chip, antibody in the mobile phase (avidity)
T1 construct: Bought reagent, amine-coupled to a CM5 chip; also called recombinant human CLDN18.2 protein; not shown: His tag

[2] = biological target: HB37A6 PG Ab (P329G mutated HB37A6 antibody, human IgG1); experiment: cell-based or functional assay
HB37A6 PG Ab (P329G mutated HB37A6 antibody, human IgG1), sequence (heavy, as listed by the source, chain 1 of 2): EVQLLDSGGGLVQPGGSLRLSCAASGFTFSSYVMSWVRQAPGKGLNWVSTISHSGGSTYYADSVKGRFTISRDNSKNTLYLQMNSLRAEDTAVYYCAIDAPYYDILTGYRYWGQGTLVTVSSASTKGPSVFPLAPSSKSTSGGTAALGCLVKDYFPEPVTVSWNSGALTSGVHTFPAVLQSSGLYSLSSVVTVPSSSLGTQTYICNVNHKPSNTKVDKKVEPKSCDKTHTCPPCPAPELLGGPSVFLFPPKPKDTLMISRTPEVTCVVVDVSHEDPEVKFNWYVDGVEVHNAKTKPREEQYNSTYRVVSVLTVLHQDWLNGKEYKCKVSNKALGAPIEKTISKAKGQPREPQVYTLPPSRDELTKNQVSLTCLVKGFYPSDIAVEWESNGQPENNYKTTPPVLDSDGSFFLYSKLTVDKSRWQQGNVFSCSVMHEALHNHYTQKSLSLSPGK
HB37A6 PG Ab (P329G mutated HB37A6 antibody, human IgG1), sequence (light, as listed by the source, chain 2 of 2): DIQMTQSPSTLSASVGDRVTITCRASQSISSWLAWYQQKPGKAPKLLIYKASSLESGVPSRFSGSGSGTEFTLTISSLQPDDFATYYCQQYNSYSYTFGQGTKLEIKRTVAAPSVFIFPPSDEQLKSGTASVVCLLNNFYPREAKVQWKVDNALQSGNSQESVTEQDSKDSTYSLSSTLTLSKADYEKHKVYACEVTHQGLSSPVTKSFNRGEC

| Binder | Kd [1] [nM] | koff [1] [s⁻¹] | kon [1] [M⁻¹ s⁻¹] | proliferation of CAR-T cells on plate-bound antibody (CellTiter-Glo), 2 days, against the WT antibody [2] [fold] | proliferation of CAR-T cells on plate-bound antibody (CellTiter-Glo), 3 days, against the WT antibody [2] [fold] |
| --- | --- | --- | --- | --- | --- |
| Hz69H9 PG Ab (P329G mutated Hz69H9 antibody, human IgG1) (antibody, V domains shown, also called H9 PG antibody; P329G H9 antibody) VH: QVQLVQSGAEVKKPGSSVKVSCKASGYSFSSYNIHWVRQAPGQGLEWMGYIAPFQGDSRYNQKFKGRVTITADKSTSTAYMELSSLRSEDTAVYYCARLNRGNSLDYWGQGTLVTVSS VL: DIVMTQSPDSLAVSLGERATINCKSSQSLFNSGNQRNYLTWYQQKPGQPPKLLIYWASTRESGVPDRFSGSGSGTDFTLTISSLQAEDVAVYYCQNNYIYPLTFGGGTKVEIKR | < 0.00527 | < 1e-05 | 1.9e+06 | – | – |
| HuR968B CAR on CAR-T cells (receptor) EVQLVESGGGLVQPGGSLRLSCAASGFTFSRYWMNWVRQAPGKGLEWVGEITPDSSTINYAPSLKGRFTISRDNAKNSLYLQMNSLRAEDTAVYYCARPYDYGAWFASWGQGTLVTVSSGGGGSGGGGSGGGGSGGGGSQAVVTQEPSLTVSPGGTVTLTCRSSTGAVTTSNYANWVQEKPDHLFTGLIGGTNKRAPGTPARFSGSLLGGKAALTLSGAQPEDEAEYYCALWYSNHWVFGGGTKLTVLGGGGSIYIWAPLAGTCGVLLLSLVITLYCKRGRKKLLYIFKQPFMRPVQTTQEEDGCSCRFPEEEEGGCELRVKFSRSADAPAYQQGQNQLYNELNLGRREEYDVLDKRRGRDPEMGGKPRRKNPQEGLYNELQKDKMAEAYSEIGMKGERRRGKGHDGLYQGLSTATKDTYDALHMQALPPR | – | – | – | ~2 | ~3.3 |

Second part, the binder after the results:

| Kd [1] [nM] | koff [1] [s⁻¹] | kon [1] [M⁻¹ s⁻¹] | proliferation of CAR-T cells on plate-bound antibody (CellTiter-Glo), 2 days, against the WT antibody [2] [fold] | proliferation of CAR-T cells on plate-bound antibody (CellTiter-Glo), 3 days, against the WT antibody [2] [fold] | Binder |
| --- | --- | --- | --- | --- | --- |
| 2.5 | 0.00177 | 709000 | – | – | Hz3G3 PG Ab (antibody, human IgG1, kappa, V domains shown, also called G3 PG antibody; G3 antibody) VH: QVQLVQSGAEVKKPGASVKVSCKASGYSFTTYWMHWVRQAPGQGLEWMGLIDPSDSETRLNQKFKDRVTMTVDTSTSTVYMELSSLRSEDTAVYYCASNRWLLGWGQGTLVTVSS VL: DIVMTQSPDSLAVSLGERATINCKSSQSLLNSGNQKNYLTWYQQKPGQPPKLLIYWASTRESGVPDRFSGSGSGTDFTLTISSLQAEDVAVYYCQNDYSYPLTFGQGTKLEIKR |
| 0.98 | 0.00185 | 1.89e+06 | – | – | Hz69H9-1.2 PG Ab (antibody, human IgG1, kappa, V domains shown, Mutant of the parent Hz69H9 with point mutations in VH or VL; also called H9-1.2 PG antibody) VH: QVQLVQSGAEVKKPGSSVKVSCKASGYSFSSYNIHWVRQAPGQGLEWMGYIAPFQGDARYNQKFKGRVTITADKSTSTAYMELSSLRSEDTAVYYCARLNRGQSLDYWGQGTLVTVSS VL: DIVMTQSPDSLAVSLGERATINCKSSQSLFNAGNQRNYLTWYQQKPGQPPKLLIYWASTRESGVPDRFSGSGSGTDFTLTISSLQAEDVAVYYCQNNYIYPLTFGGGTKVEIKR |
| 0.325 | 0.000153 | 471000 | – | – | Hz69H9-SA PG Ab (antibody, human IgG1, kappa, V domains shown, Mutant of the parent Hz69H9 with point mutations in VH or VL; also called H9-SA PG antibody) VH: QVQLVQSGAEVKKPGSSVKVSCKASGYSFSSYNISWVRQAPGQGLEWMGYIAPFQGDARYNQKFKGRVTITADKSTSTAYMELSSLRSEDTAVYYCARLNRGNSLDYWGQGTLVTVSS VL: DIVMTQSPDSLAVSLGERATINCKSSQSLFNSGNQRNYLTWYQQKPGQPPKLLIYWASTRESGVPDRFSGSGSGTDFTLTISSLQAEDVAVYYCQNNYIYPLTFGGGTKVEIKR |
